No end group written: not given here.
Assays:
Müller cells [1] = conditions: 10 μM FITC-labeled GILZ-p, 6 and 12 h, confocal immunofluorescence
Description: Müller cells were cultured on 6-well plates and starved in serum-free DMEM F12 for 24 h. The cells were then treated with 10 μM fluorescein isothiocyanate (FITC)-labeled GILZ-p for 6 and 12 h, respectively. After treatment, the Müller cells were washed with PBS, fixed in 4% paraformaldehyde (Sigma-Aldrich Corp., St. Louis, MO, United States), and permeabilized in 0.1% Triton X-100 (Promega, Madison, WI, United States) for 10 min. The cells were counterstained with 4′6-diamidino-2-phenylindole (DAPI) (Sigma-Aldrich Corp.) and examined under a laser confocal microscope (Leica Microsystems, Wetzlar, Hesse-Darmstadt, Germany).

Müller cells [2] = conditions: 10 μM FITC-labeled GILZ-p, 15 min, serum-starved primary rat Müller cells, flow cytometry
Description: Müller cells were cultured on 6-well plates and starved in serum-free DMEM F12 for 24 h.
Müller cells were cultured on 6-well plates and starved in serum-free DMEM F12 for 24 h. […] Click here for additional data file.

Müller cells [3] = conditions: 10, 50, 100, and 150 μM, 24 h, primary rat Müller cells, n = 6, compared with control group
Description: The viability of Müller cells was determined by the cell counting kit-8 (CCK-8) assay. Briefly, 0.5 × 10^5 cells per well were seeded in 96-well plates and allowed to attach overnight. Then, the culture media were replaced with fresh media containing different concentrations of GILZ-p (0, 10, 50, 100, and 150 μM). After 24 h, 10 μL CCK-8 (Dojindo, Kumamoto, Japan) solution was added to each well, and the plates were incubated for another 2 h. Measurements of optical density were obtained at a wavelength of 450 nm using a spectrophotometer.

[4] = water and culture medium
[5] = molecular target: nuclear factor (NF)-κB p65 (rat (endogenous in primary retinal …, UniProt Q7TQN4 1-550)); experiment: cell-based or functional assay
Chain of nuclear factor (NF)-κB p65 (rat (Q7TQN4 whole entry): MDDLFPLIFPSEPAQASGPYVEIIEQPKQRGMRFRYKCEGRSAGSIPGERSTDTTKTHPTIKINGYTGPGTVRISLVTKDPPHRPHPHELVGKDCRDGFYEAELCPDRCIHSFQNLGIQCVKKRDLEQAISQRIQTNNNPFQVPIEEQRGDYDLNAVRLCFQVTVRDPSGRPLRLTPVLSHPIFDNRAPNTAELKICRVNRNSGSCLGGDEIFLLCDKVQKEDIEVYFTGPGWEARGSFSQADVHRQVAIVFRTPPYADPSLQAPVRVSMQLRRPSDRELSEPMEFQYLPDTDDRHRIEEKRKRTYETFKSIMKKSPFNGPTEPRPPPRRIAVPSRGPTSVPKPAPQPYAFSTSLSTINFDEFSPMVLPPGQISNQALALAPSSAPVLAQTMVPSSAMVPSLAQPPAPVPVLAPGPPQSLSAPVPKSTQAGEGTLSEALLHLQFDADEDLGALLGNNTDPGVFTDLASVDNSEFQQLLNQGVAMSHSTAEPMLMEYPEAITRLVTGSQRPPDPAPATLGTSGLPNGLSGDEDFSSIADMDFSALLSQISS

Molecule	intracellular localisation of GILZ-p (Müller cells [1])	Müller cells associated with GILZ-p (Müller cells [2])	cytotoxicity (cell viability, CCK-8) (Müller cells [3])	solubility [4]	IC50 of GILZ-p (without the His tag) for inhibiting LPS-induced ICAM-1 expression in Müller cells (western blot, 24 h) [5] [µM]	IC50 of GILZ-p (without the His tag) for inhibiting LPS-induced IL-1β expression in Müller cells (western blot, 24 h) [5] [µM]	IC50 of GILZ-p (without the His tag) for inhibiting LPS-induced MCP-1 expression in Müller cells (western blot, 24 h) [5] [µM]	IC50 of GILZ-p (without the His tag) for inhibiting LPS-induced TNFα expression in Müller cells (western blot, 24 h) [5] [µM]	IC50 of GILZ-p (without the His tag) for inhibiting the LPS-induced downregulation of AQP4 in Müller cells (western blot, 24 h) [5] [µM]	IC50 of GILZ-p (without the His tag) for inhibiting the LPS-induced upregulation of GFAP in Müller cells (western blot, 24 h) [5] [µM]
YGRKKRRQRRRKTLASPEQLEKFQSRLSPEEPAPEAPETPEAPGGSAV [GILZ-p]	aggregated in the cytoplasm	about 7.92%	no detectable toxicity	water-soluble and fully dissolved in culture medium						
YGRKKRRQRRRKTLASPEQLEKFQSRLSPEEPAPEAPETPEAPGGSAV [His-tag-GILZ-p (TAT-GILZ 98-134 peptide with a C-terminal 6x His tag)]					7.13	8.93	5.82	8.77	2.32	11.2

Source: PMC5897418, “A Synthesized Glucocorticoid- Induced Leucine Zipper Peptide Inhibits Retinal Müller Cell Gliosis” (Frontiers in Pharmacology, 2018)
